Assay results taken from the DeepSol protein solubility set.

test: soluble on expression in E. coli; label from the status in PepcDB or PDB records

Sequence	soluble on expression in E. coli
MRGSHHHHHHTDPALRALVSSNVTMQFGSKPLFENISVKFGGGNRYGLIGANGSGKSTFMKILGGDLEPTLGNVSLDPNERIGKLRQDQFAFEEFTVLDTVIMGHKELWEVKQERDRIYALPEMSEEDGYKVADLEVKYGEMDGYSAEARAGELLLGVGIPVEQHYGPMSEVAPGWKLRVLLAQALFADPDILLLDEPTNNLDIDTIRWLEQVLNERDSTMIIISHDRHFLNMVCTHMADLDYGELRVYPGNYDEYMTAATQARERLLADNAKKKAQIAELQSFVSRFSANASKSRQATSRARQIDKIKLEEVKASSRQNPFIRFEQDKKLFRNALEVEGLTKGFDNGPLFKNLNLLLEVGEKLAVLGTNGVGKSTLLKTLVGDLQPDSGTVKWSENARIGYYAQDHEYEFENDLTVFEWMSQWKQEGDDEQAVRSILGRLLFSQDDIKKPAKVLSGGEKGRMLFGKLMMQKPNILIMDEPTNHLDMESIESLNMALELYQGTLIFVSHDREFVSSLATRILEITPERVIDFSGNYEDYLRSKGIEGLCGR	soluble
MGSDKIHHHHHHMDLQYLDNFLALAHYRSFSAAADACYISQSSFSKRIMRLENNLGVTLFERSTRQVSLTEYGQIYLKYAQQIKTLSRQATDEINRRHAEDEGIVIGGIPSISEYGILDLISGFIKTTHIHCQVKSAPSEDLEPMLLNQTLDFAFIKEVHHTNLFYQLPYAEDHLVAVLPANHPLANLSEIKLQQLANEDFIFQPVNSRPYELCMMICKQNGFTPNVIYADRIIENILNFVKKGLGVSLLMEKLVPKDSELICLPIHPAVVADINLCYLKKEPLSQYGYAFLNYFSHQNNAR	not soluble
MTTEHETHAAELGAPEPECARCGKVLPLCICDTVEPIASRTQLLILQHPQEQDRALGTARLTAQHFKNAEVRIGLSWPSLSKALGRTVHDPSRWAVLYLGSARAAELAEGREILAVDAKGQPEPHQDMILDEIEGVVLLDGTWSQAKALWWRNAWMLKCQRVILDPSAPSRYGRLRKEPRRDGLSTLEAAAMLLSRLEHRPEIETKLLEAFDRMLARFKQVQAERPDLAPKPKKRDWRRKKRGLEHHHHHH	not soluble
MGSDKIHHHHHHMNILLVDDDRFIIEALREKINWAKLHIDIVYVAYSLTQAQNIIREHPIDLMISDIEMPQGSGLELLSWIRNEKYDIKTIFLTNYADFNYAQKAIELQSFEYYLKPINFEKLEFIIQKAISKIENHNLNGKNDSLLQIEDNFWYDYLRKPQISRIDELENIASKQDFILKQHQYFFLAVLTINLNEEDYSVETPSWTSQLKRELQRISQPSYKLISLFKMESQVDQYVCLFRVDSSKRSDKLAYEIHSQISNNFSKYSNIIYKSCHKISDILFHTKELYTYNEQYVSYWNTITCVPHSFPTSFKTETLSITFLDTLSEYELREKINSLAYNSQIPTFTLQQILLDWTQQIGIYLDQNGISAHKLFQNSTHDFLFQRRFHSIESFQDYFDYYWSHAKKFATNIENQKNSIQRIVEYIDHHYYEDINRSILADVVYLSADHLARIFKKETGETLVKYITDKRINAAKSLLSQTNISISQVSCQVGYDNYSYFTKIFKQRTGLSPGDYRKTYQNKM	not soluble
MSLQINVNPQAALSQNAIVNNSSFSLVSKDVRSAQYVALVDSGRNNIEPIHPRQNVRITLENALAEQFGSQGFRLSVNSENTITLEIQELLVSVKHSIMENQMDGSVVLEITAETPRGKLVKSYTGTAKRTGVLSASNDEIETVLNDVINTVLKEIANDAELQNYMQERFNGEGHHHHHH	soluble
MAQQKKTIAVVGATGRQGASLIRVAAAVGHHVRAQVHSLKGLIAEELQAIPNVTLFQGPLLNNVPLMDTLFEGAHLAFINTTSQAGDEIAIGKDLADAAKRAGTIQHYIYSSMPDHSLYGPWPAVPMWAPKFTVENYVRQLGLPSTFVYAGIYNNNFTSLPYPLFQMELMPDGTFEWHAPFDPDIPLPWLDAEHDVGPALLQIFKDGPQKWNGHRIALTFETLSPVQVCAAFSRALNRRVTYVQVPKVEIKVNIPVGYREQLEAIEVVFGEHKAPYFPLPEFSRPAAGSPKGLGPANGKGAGAGMMQGPGGVISQRVTDEARKLWSGWRDMEEYAREVFPIEEEANGLDWML	soluble
MTEFDNLTWLHGKPQGSGLLKANPEDFVVVEDLGFTPDGEGEHILLRILKNGCNTRFVADALAKFLKIHAREVSFAGQKDKHAVTEQWLCARVPGKEMPDFSAFQLEGCKVLEYARHKRKLRLGALKGNAFTLVLREISDRRDVETRLQAIRDGGVPNYFGAQRFGIGGSNLQGALRWAQSNAPVRDRNKRSFWLSAARSALFNQIVHQRLKKPDFNQVVDGDALQLAGRGSWFVATSEELPELQRRVDEKELMITASLPGSGEWGTQRAALAFEQDAIAQETVLQSLLLREKVEASRRAMLLYPQQLSWNWWDDVTVELRFWLPAGSFATSVVRELINTMGDYAHIAE	not soluble
MRGSHHHHHHTDPALRAALKATIYKATVNVADLDRNQFLDASLTLARHPSETQERMMLRLLAWLKYADERLQFTRGLCADDEPEAWLRNDHLGIDLWIELGLPDERRIKKACTQAAEVALFTYNSRAAQIWWQQNQSKCVQFANLSVWYLDDEQLAKVSAFADRTMTLQATIQDGVIWLSDDKNNLEVNLTAWQQPSGLCGR	soluble
MGHHHHHHSHSTKDRKIIPLKMCFAARNLSMPDLENRLIELHSPDSRNTLILRCKDTATAHSWFVAIHTNIMALLPQVLAELNAMLGATSTAGGSKEVKHIAWLAEQAKLDGGRQQWRPVLMAVTEKDLLLYDCMPWTRDAWASPCHSYPLVATRLVHSGSGCRSPSLGSDLTFATRTGSRQGIEMHLFRVETHRDLSSWTRILVQGCHAAAEL	not soluble
MATQINQKFGSKYKSNRKDETPMFEVRNGKSVIKNSGNHEATVNRTLDFHMTKLFQWEEQSDAIESSYVCALCHENGEKRELFGPYYATHNPIKYWPSFLAKKPTAKKPTKIELWFHGSCVLWAPNVHLHGNQLTNLDNQIDIFWSQTCIVCRKTGAAISVQNKKNTFIHYPCAKNKGYKLDEHALLCNS	soluble
MGMIQLQNPSHPTGLLCKANQMRLAGTLCDVVIMVDSQEFHAHRTVLACTSKMFEILFHRNSQHYTLDFLSPKTFQQILEYAYTATLQAKAEDLDDLLYAAEILEIEYLEEQCLKMLETIQ	soluble
MAHHHHHHMVFSIPSYLCLGDRPKKVVDERLHGVNFLTSRPKTGHYPDALFDKEFRYVYNGDRYPDPETMARREQMENRKRYITATGFISVFRPKKGEGLGSNYGLLQQEPYIHMPDHPQTRGPQPFPKVKPRQIYTSPSKAGSYGTPGLAITDIGNEYIATIYDQERINAKKERDVWRQRMPPVPFKPVGRRGYTFDEGPATGVSMCYIMTCPFREKRVQPVMKHFIIDKMWLPAGYIPDRPPPVEYWEDPYNGFDPRVDPKSRLKKSEDSIFRTGFRGDNFFYTRSIVFRRL	not soluble
MGSDKIHHHHHHMETFGGQVGRQEVPESSIDRYRGKLPNQLLTYWAEHGWCGYGDGIFWTVNPQEYDAVVASWLEGTKFETFDAYHLIARSAFGDLYLWGEEIGASLKITSILSRYTTHKSLCLGSQMDKGLQSFILSRKVGSNDYGDLFRPARKKLGTLHHDEMYGFVPALMLGGADTLDHLEKVKAVEHLVLLSQLSDLESYDFQDL	not soluble
MGSDKIHHHHHHMWPNPALDTITHQWAQVFTNGGGLASLTDMIEQDVVVVGGGMVGAALAAGLGRAGLSVTVLENHMPQAFEASQPLDVRVSALSVASEALLERLDAWAGILSRRAVPYLGLETWEIESCITRFHASQIGADHLGHIVENRVVQLALWDLLSTLDSVTVKAPVNVMGFERLVDEDAICVALDSGERIKAKLLVGADGANSQVRAFAHIGVTGWDYAQSAMLINIATACEQQDVTWQQFTPQGPRSLLPLPGKNASLVWYDDASTIARLAKLNPNELADSIRAHFPARLDRDFRVLDKGHFKLTRRHAQRYFDANLVLIGDAAHTINPLAGQGVNLGFKDVDVLLDEIVSAVKKGENWHTKSVLERYQQRRWRDNQLMMSTMDAFYASFSNDLLPVKLLRNAALRLANVDGPIKRQVLKYAMGLK	not soluble
MPVLHNRISNDELKAKMLAESEPRTTISFYKYFTIASPQQTRDALYQVFTALDVFGRVYLAHEGINAQISVPQSKLETFRQQLYTFDPALDGVRLNIALEDDGKSFWVLRMKVRDRIVADGIDDPTFDASNVGDYLKAADVNAMLDDPDAVFIDMRNHYEYEVGHFENALEIPADTFREQLPKAVEMLREHADKKIVMYCTGGIRCEKASAWMKHNGFNKVWHIEGGIIEYARRARAQGLPVRFIGKNFVFDERMGERISDEVIAHCHQCGASCDSHTNCKNDGCHLLFIQCPQCASKFNGCCSEQCCEELALPEEEQRRRRAGRENGNKIFNKSRGRLNSKLSIPDPAE	not soluble
MGSDKIHHHHHHENLYFQGMTQLELLLERIIDRVNVNLRHQKFDVGDYVRRQTPHLHYSKFYAFYGLSADDPVHFHFKNSSLAGSYLLGRVNVLHSALYKSDIRGDELKRKGQHFVCDGKMIPLHDDEVITIKDSFLNKTLVHSNSHDPESPEEFTIRNTVAMPYANIHGSLTEGSFIGSFATVDLSTIHNSVVRYFSYVQTGELVGKCVEPGQIWIKSGDELEFHYSFDKAILDKYISQEAGSCPTGVLMEFVEVRQEDFEEVFASGHMASGAGSASGASVSGYAVIKGDTVIGENVLVSQRAYLDNAWMGKGSNAQENCYIINSRLERNCVTAHGGKIINAHLGDMIFTGFNSFLQGSESSPLKIGDGCVVMPHTIIDLEEPLEIPAGHLVWGYIRNKADLAAHSISFEEFAKVDGEVTMGRMTFRGKGGPFLDSFKKRIKRILSENGAFFDGSEGTGHAQKGKNFTFNIIQPYQDGDPRGMYPTILIQPNNGS	soluble
MGSDKIHHHHHHMTKIKHIFSDLDGTLLDDQGKISKKTQEVIENSNLPFSLVSARAPQAMESLINQLNLKSSQVAFNGGLIFAKNEVIKANPMVHASAQELIKTIKKDYPEINLSLYSLSDWYVEKIDKDIEQEMQFTPQVPKLVDLETLITERPRLEIFKILLITPNESKLEEIKKHLEKLNFPDIIIQKTWETYLEITHLEAQKAKAVQFIAQREQLEQSELAAFGDNENDLSMLKAVGLPIVMANASDDLKKIGKVITKSNTEDGVAYGIQKYITDSLF	not soluble
MSRRNATSFVDNNTLTSSEGLTSGVFSWALERLPTCLREELQLPLTDTGSCWQTN	not soluble
MWESKFVKEGLTFDDVLLVPAKSDVLPREVSVKTVLSESLQLNIPLISAGMDTVTEADMAIAMARQGGLGIIHKNMSIEQQAEQVDKVKRSESGVISDPFFLTPEHQVYDAEHLMGKYRISGVPVVNNLDERKLVGIITNRDMRFIQDYSIKISDVMTKEQLITAPVGTTLSEAEKILQKYKIEKLPLVDNNGVLQGLITIKDIEKVIEFPNSAKDKQGRLLVGAAVGVTADAMTRIDALVKASVDAIVLDTAHGHSQGVIDKVKEVRAKYPSLNIIAGNVATAEATKALIEAGANVVKVGIGPGSICTTRVVAGVGVPQLTAVYDCATEARKHGIPVIADGGIKYSGDMVKALAAGAHVVMLGSMFAGVAESPGETEIYQGRQFKVYRGMGSVGAMEKGSKDRYFQEGNKKLVPEGIEGRVPYKGPLADTVHQLVGGLRAGMGYCGAQDLEFLRENAQFIRMSGAGLLESHPHHVQITKEAPNYSL	not soluble
MKKSSILILIIICLVGCKKGSNETTITGEIKGLGTDTLYLYGMDELYDRIDTIYVENDKFSYTTSVDTITSAYLLLKNRIEYPVFLDKGNKIKIKGDTINLNFLTISGNIYNEEFTDFQKALEDPADPSEKAGEETVDKRITVEKANTAEEMAEEFILQHHSSYVSLYLLDKYFVQKETPDFSKIKKLVEVMTGVLQDKPYIERLNETITQAEKSEIGKYAPFFSLPNAKGEKITRSSDAFKQKSLLINFWASWNDSISQKQSNSELREIYKKYKKNKYIGMLGISLDVDKQQWKDAIKRDTLDWEQVCDFGGLNSEVAKQYSIYKIPANILLSSDGKILAKNLRGEELKKKIENIVEEATEKEKKNKQKK	not soluble
